For orientation: Kd means the equilibrium constant for the complex coming apart.

The chains are these.
B1: cyclophilin D (enzyme)
chain: not shown
B2: p53 NTD 20-70 (domain or fragment)
chain: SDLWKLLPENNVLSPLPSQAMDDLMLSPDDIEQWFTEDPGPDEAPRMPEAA

The target in one test is full-length p53 (UniProt P04637 1-393). In words: SPR.
The target in the test “cyclophilin D” is B1. In words: SPR. On the technique in general: Surface plasmon resonance follows binding to a sensor surface in real time, without labels.

Sequence of cyclophilin D (P30405 43-207): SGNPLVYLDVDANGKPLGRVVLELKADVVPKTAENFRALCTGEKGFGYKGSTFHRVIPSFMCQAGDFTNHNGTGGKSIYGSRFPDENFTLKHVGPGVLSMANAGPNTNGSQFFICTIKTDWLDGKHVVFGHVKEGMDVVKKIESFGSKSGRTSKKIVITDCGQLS

Regarding B1, the Kd in the test with full-length p53 is roughly 1000 nM.

For the molecule B2, in the test with cyclophilin D, the Kd came out at 9.4 µM.

For the origin of these results see paper doi:10.1101/2021.07.23.453429 (bioRxiv, 2021).
